Measurements reported in patent US20230363418A1, “COMPOSITION FOR PREVENTING OR TREATING NEUROPSYCHOLOGIC DISEASE, COMPRISING MANF” (CEFO CO., LTD., priority 2020, published 2023).

Columns and labels:
[1] = test system: IBO-administered memory impairment and autism model; assay: Y-shaped maze experiment; format: in vivo, rat; settings: MANF-AAV-hMSC transplanted into the hippocampus of IBO rats
Protocol: Memory impairment and autism models were prepared by administering IBO to the entorhinal cortex of the rats, wherein the IBO destroys granule cells of the dentate gyrus (DG) and pyramidal cells of the hippocampus, which receive nerve signals input from the entorhinal cortex. Specifically, the rats were anesthetized with equitensin (10% ethanol containing 350 mM pentobarbital sodium, 250 mM chloral hydrate, 85 mM MgSO and 40% propylene glycol). The incisor bar of a stereotaxic device (Stoelting Co., U.S.A.) was placed 3.4 mm below the interaural line, and the injection needle angle was fixed at […] right from the center of the sagittal plane. 1.5 ul of IBO (1 mg/ml) was injected into the entorhinal cortex of the rat using the stereotaxic device. The IBO was injected into three locations of first, AP: -8.4, ML: -4.8, DV: -4.6; Second, AP; -8.4, ML: -4.8, DV: […]; Third, AP: -8.8, ML: - 3.65, DV: -3.4 (FIG. 7).
After 2-3 IBO injections, each group was randomly classified into an IBO-administrated group (negative control group), and a GFP-AAV-hMSC-administrated group (GFP-AAV) and a MANF-AAV-hMSC-administrated group […] as a control group. A rest period of one week was provided. […]

[2] = test system: hippocampus of IBO-administered memory impairment and autism model; assay: Immunohistochemical analysis of brain tissue (BrdU, SOX2, DCX, NeuN, GAD67, CNPase); format: in vivo, rat; settings: brain tissue after behavioral experiment
Protocol: The brain tissue stored in the same method as the immunostaining of Example 9-1 was washed twice with PBS, permeated in 0.5% Triton X-100 for 20 minutes, and cultured in 2N HCl at 37° C. for 30 minutes. Thereafter, blocking was performed in 15% standard serum, 3% bovine serum albumin (bio-WORLD, Dublin, OH, USA) and 0.1% Triton X-100 in a free-floating state for 2 hours. The tissue was doubly stained at 4° C. for 16 hours using BrdU (abcam, 1:700) antibody, SOX2 (R&D system, MAB2018, 1:2000), DCX (Santacruz, sc8066, 1:1000), NeuN (Millipore, MAB377B, 1:700), CNPase (Abcam, ab6319, 1:700), vGluT1 (Millipore, MAB5502, 1:700), GAD67 (Millipore, MAB5406, 1:2000) as primary antibodies. As secondary antibodies, mo-Alexa 488 (Invitrogen, A21202, 1:700), mo-Cy3 (Jackson lab, 715-165-151, 1:500), rb-Alexa 488 (Jackson lab, 711-546-152, 1:700), rat-Alexa 488 (Abcam, ab6326, 1:700), etc. were used. Immunostained tissues were scanned with a confocal microscope (LSM510, LSM800 Carl Zeiss, Oberkochen, Germany).
The number of differentiation markers in the hippocampus of each experimental animal was shown by counting the number of DAPI-labeled cells in the double and triple photographed slides and counting the number of each cells labeled by fluorescently labeling each differentiation marker, NeuN, CNPase, GAD and vGluT1. Here was counted the number of cells labeled with the secondary antibody that is precisely matched in shape and location and has the shape of a cell.

[3] = test system: proliferating neural progenitor cells; assay: Immunoblotting of Sox2 and DCX in proliferating neural progenitor cells; format: cell-based, rat; settings: MANF 20 ng/ml, proliferation condition
Protocol: Specifically, hippocampal-derived neural stem cells were isolated from the brain of E16 rat embryos. Hippocampal ridges were minced from the embryonic forebrains of E16 rats using sterile fine tweezers under a dissecting microscope. The tissues were collected, mechanically separated using a pipette in Ca^2+/Mg^2+-freeHBSS (Invitrogen) solution, and planted at 19,000 cells/cm^2 in 35 mm culture dishes precoated with 15 µg/ml poly-L-ornithine and 1 µg/ml fibronectin (Sigma). The cells were cultured under the condition of 5% CO2 for 3 days using a serum-free N2 medium (medium for proliferation) supplemented with 10 ng/mL basic fibroblast growth factor(bFGF, Invitrogen). Thereafter, the cells were removed using 0.05% trypsin/EDTA (ethylene-diamine-tetraacetic acid), and neural progenitor cells were planted on a 12 mm glass coverglass (Belco) for immunostaining and on a 100 mm dish for immunoblotting and cultured in N2 medium for proliferation containing bFGF for 1 day. Thereafter, in the proliferation condition, the medium continuously containing bFGF was treated with MANF at the indicated concentration and cultured for 2-3 days; and in the differentiation condition, MANF was added to the medium for differentiation not containing bFGF, which was cultured for 3-7 days. In the control group (vehicle), physiological saline was added in the same volume instead of MANF.

B1: MANF: one of 16 or more growth factors secreted into nerve stem cells by cerebrovascular cells; amino acid sequence of SEQ ID NO: 1 (protein)
chain: MRRMWATQGLAVALALSVLPGSRALRPGDCEVCISYLGRFYQDLKDRDVTFSPATIENELIKFCREARGKENRLCYYIGATDDAATKIINEVSKPLAHHIPVEKICEKLKKKDSQICELKYDKQIDLSTVDLKKLRVKELKKILDDWGETCKGCAEKSDYIRKINELMPKYAPKAASARTDL
modifications: MANF
In the case of B1, the “memory ability in Y-shaped maze test” value [1] is reported as “memory improvement”, the “differentiation of newly proliferated (BrdU stained) neural progenitor cells into GABAergic nerve cells (GAD)” value [2] is reported as “increased” and the “differentiation of newly proliferated (BrdU stained) neural progenitor cells into mature nerve cells (NeuN)” value [2] is reported as “increased”. For the same molecule, the “differentiation of newly proliferated (BrdU stained) neural progenitor cells into oligodendrocytes (CNPase)” value [2] was “increased”, the “migration (DCX) of neural stem cells (Sox2+)” value ([2]; MANF-AAV-hMSC transplanted) was “promoted” and the “proliferation (BrdU+, Ki67) of neural stem cells (Sox2+)” value ([2]; MANF-AAV-hMSC transplanted) was “promoted”. For the same molecule, the DCX immunoblot [3] was “significantly increased” and the Sox2 immunoblot [3] was “significantly increased”.
